Laboratory results published in patent EP4782466A1, “FUSION PROTEIN FOR INACTIVATING CORONAVIRUS AND USE THEREOF” (priority 2023, dated 2025).

Assays:
Assay in all cases: cell-based or functional assay
[1] = biological target: S protein of SARS-CoV-2 Omicron BA.2.75 (SARS-CoV-2 BA.2.75)
[2] = biological target: S protein of SARS-CoV-2 Omicron BF.7 (SARS-CoV-2 BF.7)
[3] = biological target: S protein of SARS-CoV-2 Omicron BA.2 (SARS-CoV-2 BA.2)
[4] = biological target: S protein of SARS-CoV-2 Omicron BA.2.2 (SARS-CoV-2 BA.2.2)
[5] = biological target: S protein of SARS-CoV-2 Omicron BQ.1 (SARS-CoV-2 BQ.1)
[6] = biological target: S protein of SARS-CoV-2 Delta (B.1.617.2) (SARS-CoV-2 Delta (B.1.617.2))
[7] = biological target: S protein of SARS-CoV-2 Beta (B.1.351) (SARS-CoV-2 Beta (B.1.351))
[8] = biological target: S protein of SARS-CoV-2 Omicron BA.1 (SARS-CoV-2 BA.1)
[9] = biological target: S protein of SARS-CoV-2 Gamma (P.1) (SARS-CoV-2 Gamma (P.1))
[10] = biological target: S protein of SARS-CoV-2 Omicron BA.5 (SARS-CoV-2 BA.5)
[11] = biological target: S protein of SARS-CoV-2 Omicron XBB (SARS-CoV-2 XBB)
[12] = biological target: S protein of SARS-CoV-2 Omicron BA.2.12.1 (SARS-CoV-2 BA.2.12.1)
[13] = biological target: S protein of SARS-CoV-2 Omicron BA.2.9 (SARS-CoV-2 BA.2.9)
[14] = biological target: S protein of SARS-CoV-2 Lambda (SARS-CoV-2 Lambda)
[15] = biological target: S protein of SARS-CoV-2 Omicron BA.3 (SARS-CoV-2 BA.3)
[16] = biological target: S protein of SARS-CoV-2 Omicron BA.4.6 (SARS-CoV-2 BA.4.6)
[17] = biological target: S protein of SARS-CoV-2 Alpha (B.1.1.7) (SARS-CoV-2 Alpha (B.1.1.7))

Substance: AL5E protein (ACE2-linker-EK1 fusion protein with (GGGGS)5 linker)
- EC50, inactivation of pseudovirus (Caco-2, luciferase) [1]: 1.91 nM
- Fold enhancement of AL5E over ACE2 (EC50, pseudovirus inactivation) [1]: 354 fold
- Fold enhancement of AL5E over ACE2 (IC50, pseudovirus inhibition) [1]: 51 fold
- IC50, inhibition of pseudovirus infection (Caco-2, luciferase) [1]: 0.52 nM
- EC50, inactivation of pseudovirus (Caco-2, luciferase) [2]: 1.99 nM
- Fold enhancement of AL5E over ACE2 (EC50, pseudovirus inactivation) [2]: 96.3 fold
- Fold enhancement of AL5E over ACE2 (IC50, pseudovirus inhibition) [2]: 362 fold
- IC50, inhibition of pseudovirus infection (Caco-2, luciferase) [2]: 0.28 nM
- EC50, inactivation of pseudovirus (Caco-2, luciferase) [3]: 3.04 nM
- Fold enhancement of AL5E over ACE2 (EC50, pseudovirus inactivation) [3]: 108 fold
- Fold enhancement of AL5E over ACE2 (IC50, pseudovirus inhibition) [3]: 96.8 fold
- IC50, inhibition of pseudovirus infection (Caco-2, luciferase) [3]: 0.13 nM
- EC50, inactivation of pseudovirus (Caco-2, luciferase) [4]: 3.35 nM
- Fold enhancement of AL5E over ACE2 (EC50, pseudovirus inactivation) [4]: 142 fold
- Fold enhancement of AL5E over ACE2 (IC50, pseudovirus inhibition) [4]: 59.3 fold
- Fold of AL5E over ACE2 (IC50, live BA.2.2 virus inhibition) [4]: 44 fold
- IC50, inhibition of pseudovirus infection (Caco-2, luciferase) [4]: 0.2 nM
- EC50, inactivation of pseudovirus (Caco-2, luciferase) [5]: 3.73 nM
- Fold enhancement of AL5E over ACE2 (EC50, pseudovirus inactivation) [5]: 40 fold
- Fold enhancement of AL5E over ACE2 (IC50, pseudovirus inhibition) [5]: 136 fold
- IC50, inhibition of pseudovirus infection (Caco-2, luciferase) [5]: 0.16 nM
- EC50, inactivation of pseudovirus (Caco-2, luciferase) [6]: 8.21 nM
- Fold enhancement of AL5E over ACE2 (EC50, pseudovirus inactivation) [6]: 73.7 fold
- Fold enhancement of AL5E over ACE2 (IC50, pseudovirus inhibition) [6]: 30.3 fold
- IC50, inhibition of pseudovirus infection (Caco-2, luciferase) [6]: 0.16 nM
- EC50, inactivation of pseudovirus (Caco-2, luciferase) [7]: 1.57 nM
- Fold enhancement of AL5E over ACE2 (EC50, pseudovirus inactivation) [7]: 78.4 fold
- Fold enhancement of AL5E over ACE2 (IC50, pseudovirus inhibition) [7]: 94.5 fold
- IC50, inhibition of pseudovirus infection (Caco-2, luciferase) [7]: 0.17 nM
- EC50, inactivation of pseudovirus (Caco-2, luciferase) [8]: 1.29 nM
- Fold enhancement of AL5E over ACE2 (EC50, pseudovirus inactivation) [8]: 63.7 fold
- Fold enhancement of AL5E over ACE2 (IC50, pseudovirus inhibition) [8]: 624 fold
- IC50, inhibition of pseudovirus infection (Caco-2, luciferase) [8]: 0.03 nM
- EC50, inactivation of pseudovirus (Caco-2, luciferase) [9]: 2.7 nM
- Fold enhancement of AL5E over ACE2 (EC50, pseudovirus inactivation) [9]: 32.8 fold
- Fold enhancement of AL5E over ACE2 (IC50, pseudovirus inhibition) [9]: 68.5 fold
- IC50, inhibition of pseudovirus infection (Caco-2, luciferase) [9]: 0.22 nM
- EC50, inactivation of pseudovirus (Caco-2, luciferase) [10]: 2.27 nM
- Fold enhancement of AL5E over ACE2 (EC50, pseudovirus inactivation) [10]: 148 fold
- Fold enhancement of AL5E over ACE2 (IC50, pseudovirus inhibition) [10]: 382 fold
- IC50, inhibition of pseudovirus infection (Caco-2, luciferase) [10]: 0.04 nM
- EC50, inactivation of pseudovirus (Caco-2, luciferase) [11]: 4.69 nM
- Fold enhancement of AL5E over ACE2 (EC50, pseudovirus inactivation) [11]: 45.2 fold
- Fold enhancement of AL5E over ACE2 (IC50, pseudovirus inhibition) [11]: 74.5 fold
- IC50, inhibition of pseudovirus infection (Caco-2, luciferase) [11]: 0.17 nM
- EC50, inactivation of pseudovirus (Caco-2, luciferase) [12]: 1.94 nM
- Fold enhancement of AL5E over ACE2 (EC50, pseudovirus inactivation) [12]: 39.2 fold
- Fold enhancement of AL5E over ACE2 (IC50, pseudovirus inhibition) [12]: 176 fold
- IC50, inhibition of pseudovirus infection (Caco-2, luciferase) [12]: 0.06 nM
- EC50, inactivation of pseudovirus (Caco-2, luciferase) [13]: 8.62 nM
- Fold enhancement of AL5E over ACE2 (EC50, pseudovirus inactivation) [13]: 47.2 fold
- Fold enhancement of AL5E over ACE2 (IC50, pseudovirus inhibition) [13]: 95.4 fold
- IC50, inhibition of pseudovirus infection (Caco-2, luciferase) [13]: 0.08 nM
- EC50, inactivation of pseudovirus (Caco-2, luciferase) [14]: 2.75 nM
- Fold enhancement of AL5E over ACE2 (EC50, pseudovirus inactivation) [14]: 42 fold
- Fold enhancement of AL5E over ACE2 (IC50, pseudovirus inhibition) [14]: 427 fold
- IC50, inhibition of pseudovirus infection (Caco-2, luciferase) [14]: 0.03 nM
- EC50, inactivation of pseudovirus (Caco-2, luciferase) [15]: 2.26 nM
- Fold enhancement of AL5E over ACE2 (EC50, pseudovirus inactivation) [15]: 23.1 fold
- Fold enhancement of AL5E over ACE2 (IC50, pseudovirus inhibition) [15]: 32.5 fold
- IC50, inhibition of pseudovirus infection (Caco-2, luciferase) [15]: 0.2 nM
- EC50, inactivation of pseudovirus (Caco-2, luciferase) [16]: 2.28 nM
- Fold enhancement of AL5E over ACE2 (EC50, pseudovirus inactivation) [16]: 508 fold
- Fold enhancement of AL5E over ACE2 (IC50, pseudovirus inhibition) [16]: 70.8 fold
- IC50, inhibition of pseudovirus infection (Caco-2, luciferase) [16]: 0.93 nM
- EC50, inactivation of pseudovirus (Caco-2, luciferase) [17]: 8.72 nM
- Fold enhancement of AL5E over ACE2 (EC50, pseudovirus inactivation) [17]: 27.9 fold
- Fold enhancement of AL5E over ACE2 (IC50, pseudovirus inhibition) [17]: 47.7 fold
- IC50, inhibition of pseudovirus infection (Caco-2, luciferase) [17]: 0.13 nM
